This is an account of results in patent US8802160B2 (Amorphical Ltd., priority 2007, dated 2014).

A short description of data set [1]: Stability of ACC at room temperature by Raman spectroscopy. The format is physicochemical. The method, then: The precipitated calcium carbonate was checked over long periods for the amorphous/crystalline state.
(§1) 100 μl of 1M CaCl2 was added to 10 ml double distilled water (final concentration: 10 mM). 80 μl from the protein extraction solution (1.2 μg/μl) were added (final concentration ˜10 μg/ml). 100 μl of 1M Na2CO3 (final concentration: 10 mM) was added following an intensive shaking. The vial was centrifuged for 5 min at 4000 rpm, the precipitate was smeared over a glass slide and instantly dried with air flow. […] The observations were confirmed by Raman spectroscopy.

A short description of data set [2]: In vitro calcium carbonate precipitation assay testing the stabilization of ACC. The format is physicochemical. As to conditions: for effect on calcium carbonate precipitation (polymorph obtained): CaCl2 + Na2CO3 solution, SEM, Raman. The method, then: Electron microscope images of the precipitates distinctly indicated different polymorph composition of calcium carbonate for the precipitation in the presence/absence of GAP65-enriched fractions (FIG. 7).
FIG. 7 presents precipitation results of calcium carbonate in the presence of GAP65 and in the presence of other protein (trypsin). SEM images in FIG. 7A indicate the distinct polymorph of calcium carbonate in each treatment.
as §1
The peak at 560 is attributed to the glass substrate. […] Specific expression of GAP21, GAP22 and GAP65 in several target tissues was checked by means of RT-PCR, similarly as described in Example 2. GAP21 and GAP65 expressions were found in both cuticle related tissues. GAP22 expression was found only in the gastrolith epithelial disc. The cDNA sequences of the corresponding genes were obtained and their deduced proteins were found (FIGS. 13-15). […] GAP12, GAP21 and GAP22, on the other hand, show no significant similarity to any known domain.

Entries after “also recorded” stand apart in the source; their conditions may differ.

B1: GAP65: approximately 65 kDa negatively charged glycoprotein from Cherax quadricarinatus gastrolith, SEQ ID NO:1; used as GAP65 enriched fraction (protein, listed as Cherax quadricarinatus)
chain: MIRRVTTPLLALLLAGWVVAQTTDMDPEQYCARRDDEYFRKDFGDPAEFASDYRANCGVYYRCVPAPAGKRSISASQCQSELFFDVQQQICERKSKVTNCEQIDKEHPPQPFWPLREGEESQCKSGEIMCGSGECLPQHRFCDENSDCADGSDENICTPDKDPNRADVCEPRTCLWSQGCFCSVDGTRIPGDLTVDQTPQMITITFTGAINERNFRIFQDVFKDTVKHKGNDCTPKGTFFISHGFSNYSAIQELNRVGHEIAVSSITNNDNPDYWSKLSALDYEAEMDGARLIIEKFANITANEVLGIRVPKQRVGGNRQFRMMVDWGFLYDSSISAPMGRLPLWPYTLMHRMPHKCLGNDQNCPSQNFTVWEMVINEMDRRDDPQFDERLTGCHFVDQCANIQSPEQFRAFLDNNLARHYRTNRAPLGLHFTSGYFETRRDFLREFVKWVRETALSGDYFFVTMQQVINWMEAPTELTAINNFQEWKGKCEVKGQPYCSLPNPCPKKVPRIFPNEEEMFLYTCMECPNTYPWLGDPHGNGFLDIPDF
modifications: glycosylated
notes: used as GAP65 enriched fraction
As to B1, the “time ACC precipitated with GAP65 remained stable” value in data set [1] is reported as “at least 1 months”. Further, the “ACC share of the total CaCO3 precipitated” value in data set [2] (10 mM CaCl2, 10 mM Na2CO3, ~10 μg/ml protein, estimated) is “at least 50%”. In addition, the “effect on calcium carbonate precipitation (polymorph obtained)” value in data set [2] is reported as “amorphous CaCO3; also recorded: deposition of an amorphous form (ACC)”.

B2: trypsin (protein, UniProt P00760 24-246, looked up)
Serine protease 1: IVGGYTCGANTVPYQVSLNSGYHFCGGSLINSQWVVSAAHCYKSGIQVRLGEDNINVVEGNEQFISASKSIVHPSYNSNTLNNDIMLIKLKSAASLNSRVASISLPTSCASAGTQCLISGWGNTKSSGTSYPDVLKCLKAPILSDSSCKSAYPGQITSNMFCAGYLEGGKDSCQGDSGGPVVCSGKLQGIVSWGSGCAQKNKPGVYTKVCNYVSWIKQTIASN
notes: other (inert) protein used as control in the precipitation assay
Consider B2, for which the “effect on calcium carbonate precipitation (polymorph obtained)” value in data set [2] was “rapid crystallization”.
